This note sets out measurements from article PMC9668932.

The target of this assay is heat shock protein HSP 90-beta, full length, His6-tagged (human) (UniProt P08238). The assay can be described thus: cryo-EM structure; ternary Hsp90-XAP2-AHR complex, co-expressed in Sf9 and co-purified, with indirubin at 5x molar excess; 20 mM Bis-Tris-HCl pH 7.0, 50 mM NaCl, 10 mM KCl, 10 mM MgCl2, 20 mM Na2MoO4, 2 mM BME; global map 2.85 Å, focused map 4.07 Å.

heat shock protein HSP 90-beta, full length, His6-tagged, P08238 1-724 (natural protein; other documents disagree on this pair), sequence (P08238 whole entry): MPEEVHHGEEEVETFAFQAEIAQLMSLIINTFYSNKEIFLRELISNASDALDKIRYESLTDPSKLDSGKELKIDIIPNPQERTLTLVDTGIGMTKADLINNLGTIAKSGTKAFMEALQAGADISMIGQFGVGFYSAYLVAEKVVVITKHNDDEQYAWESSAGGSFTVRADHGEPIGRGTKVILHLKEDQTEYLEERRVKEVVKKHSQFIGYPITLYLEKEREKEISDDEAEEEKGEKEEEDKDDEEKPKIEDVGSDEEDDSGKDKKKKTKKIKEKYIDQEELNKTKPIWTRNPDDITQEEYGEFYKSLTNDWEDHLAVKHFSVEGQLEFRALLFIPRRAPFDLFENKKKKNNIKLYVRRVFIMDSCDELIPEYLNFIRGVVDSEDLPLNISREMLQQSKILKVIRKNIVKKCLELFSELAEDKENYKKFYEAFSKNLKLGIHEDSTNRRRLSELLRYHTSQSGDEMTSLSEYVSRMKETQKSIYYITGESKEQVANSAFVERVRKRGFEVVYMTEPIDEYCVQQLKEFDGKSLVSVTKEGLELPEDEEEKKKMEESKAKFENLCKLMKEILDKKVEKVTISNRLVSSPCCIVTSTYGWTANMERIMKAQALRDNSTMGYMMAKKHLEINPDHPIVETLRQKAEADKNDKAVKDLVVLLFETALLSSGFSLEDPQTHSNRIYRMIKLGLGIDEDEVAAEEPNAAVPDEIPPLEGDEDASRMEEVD

The substance “heat shock protein HSP 90-beta, full length, His6-tagged, P08238 1-724 (natural protein; other documents disagree on this pair)” returned a stoichiometry N of 2.

Usually stoichiometry N stands for a count of units in the complex or per binding partner.
